Settings: Escherichia coli (strain K12); pH 7.4; 22 °C; GdnHCl; Fluorescence; Sodium phosphate 20 mM; reversible: yes; whole UniProt chain shown

B1: PTS system mannose-specific EIIAB component wild type, P69797 (protein)
chain: MTIAIVIGTHGWAAEQLLKTAEMLLGEQENVGWIDFVPGENAETLIEKYNAQLAKLDTTKGVLFLVDTWGGSPFNAASRIVVDKEHYEVIAGVNIPMLVETLMARDDDPSFDELVALAVETGREGVKALKAKPVEKAAPAPAAAAPKAAPTPAKPMGPNDYMVIGLARIDDRLIHGQVATRWTKETNVSRIIVVSDEVAADTVRKTLLTQVAPPGVTAHVVDVAKMIRVYNNPKYAGERVMLLFTNPTDVERLVEGGVKITSVNVGGMAFRQGKTQVNNAVSVDEKDIEAFKKLNARGIELEVRKVSTDPKLKMMDLISKIDK
- denaturant midpoint (higher = more stable): 2.3 M
- unfolding free energy: 10.5 kcal/mol

From FireProtDB (doi:10.1110/ps.8.7.1530)
